The test system of this series is ATP. Nature of the series: switch fluorescence ratio, 500 uM ATP over buffer (Cy3 cluster intensity, sum of 5 cycles each) (fold (ratio)); higher = stronger signal-on switching upon ATP binding; sequences stand for … in TCGTCGGCAGCGTCAGATGTGTATAAGAGACAGTTTTTTTTTTTTTTTTTTTTTTTTT…TC. Conditions: aptamer strand: ATP DNA aptamer (quencher-CACCTGGGGGAGTATTGCGGAGGAAGG + anchor), 100 nM annealed; ATP concentration: 500 uM. The procedure, abridged: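 Values give the fluorescence ratio for each switch-domain sequence, averaged from per-cluster ratios of summed target-cycle to summed buffer-cycle Cy3 intensity. The Cy3-labelled switching-strand clusters sat on a modified Illumina MiSeq flow-cell, were annealed to 100 nM quencher-labelled ATP aptamer, and were imaged in selection buffer, then after 15 min with 500 uM ATP at 22 °C. Five cycles ran with NaOH stripping and re-annealing between them, and clusters outside 100-1000 RFU were excluded.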

The record followed here is the supplement of paper PMC10126150.

± gives the standard deviation of the averaged measurements.
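Also: ATP exposure 15 min at 22 °C before imaging.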

Take CCACTGATCG: the switch fluorescence ratio was 1.02 ± 0.022. In the case of CCACTGGGCA, the switch fluorescence ratio was 1.02 ± 0.042. As to CCACTGGGTA, the switch fluorescence ratio was 1.054 ± 0.0042.

As for CCACTGTTGG, the switch fluorescence ratio came out at 0.992 ± 0.029.

Take CCAGA: the switch fluorescence ratio was 1.022 ± 0.006. The result for CCAGAAAAGG reads 1.31 ± 0.47.

As for CCAGAAAGGA, the switch fluorescence ratio amounted to 0.97 ± 0.029. The result for CCAGAAAGTG reads 1.26 ± 0.38; that for CCAGAAGTGA, 1.08 ± 0.018; that for CCAGAGGGTG, 1.45 ± 0.52. The result for CCAGAGGTAA reads 1.04 ± 0.027. On to CCAGCACTTT, for which the switch fluorescence ratio was 1.008 ± 0.002.

Consider CCAGCATGGG, for which the switch fluorescence ratio worked out at 1.02 ± 0.015. As for CCAGCGGCCA, the switch fluorescence ratio is 1.02 ± 0.025.

As for CCAGGAACGA, the switch fluorescence ratio is 0.986 ± 0.028. In the case of CCAGGATTGG, the switch fluorescence ratio worked out at 1 ± 0.006.

For CCAGGCTGAG, the switch fluorescence ratio was determined as 1.05 ± 0.022. Consider CCAGGGGCGA, for which the switch fluorescence ratio was 1.75 ± 0.9. As to CCAGGGGGAC, the switch fluorescence ratio is 1.11 ± 0.018. As for CCAGGGGGGA, the switch fluorescence ratio came to 1.18 ± 0.048. CCAGGGGGGT: the switch fluorescence ratio amounted to 1.99 ± 1.4. Regarding CCAGGGGGTG, the switch fluorescence ratio amounted to 1.53 ± 0.32. Regarding CCAGGTATAA, the switch fluorescence ratio was determined as 1.06 ± 0.041. Consider CCAGGTGGGA, for which the switch fluorescence ratio is 3.53 ± 1.5. The result for CCAGTACCTT reads 1.09 ± 0.03; that for CCAGTAGTTT, 1 ± 0.013; that for CCAGTGAGGG, 0.99 ± 0.026. For the sequence CCAGTGTTCT, the switch fluorescence ratio was found to be 1.01 ± 0.024.

On to CCAGTTGGCA, for which the switch fluorescence ratio is 1 ± 0.031. The result for CCATAAGGGA reads 1.028 ± 0.0055; that for CCATAGAGAA, 1.02 ± 0.043; that for CCATAGAGAT, 1.025 ± 0.0025. For the sequence CCATAGGATA, the switch fluorescence ratio came to 1.0259 ± 0.00058.

Regarding CCATAGTTGC, the switch fluorescence ratio turned out to be 1.57 ± 0.086. Turning to CCATATTGTG, the switch fluorescence ratio was found to be 1.02 ± 0.016. Consider CCATATTTTT, for which the switch fluorescence ratio is 0.985 ± 0.015. On to CCATCATTCA, for which the switch fluorescence ratio was determined as 1 ± 0.028.

Take CCATGGCGGT: the switch fluorescence ratio came to 1.05 ± 0.033. For the sequence CCATGGGTGC, the switch fluorescence ratio was 1.34 ± 0.024.

As for CCATGGGTGG, the switch fluorescence ratio was 1.01 ± 0.011. On to CCATGTCGTA, for which the switch fluorescence ratio was determined as 0.995 ± 0.016. For CCATGTCTGT the value was 0.963 ± 0.015; for CCATGTGACT, 1.034 ± 0.0057; for CCATTAGTAT, 1.057 ± 0.0076. In the case of CCATTGGGTA, the switch fluorescence ratio was determined as 1.01 ± 0.036. CCATTGTCCC: the switch fluorescence ratio came out at 1.05 ± 0.029. In the case of CCATTTATTT, the switch fluorescence ratio was found to be 1.02 ± 0.019. For CCATTTCTTT the value was 1.01 ± 0.067; for CCATTTGAGG, 0.987 ± 0.059; for CCATTTTGCC, 0.9878 ± 0.00023.

Consider CCATTTTGCG, for which the switch fluorescence ratio amounted to 1 ± 0.011. For the sequence CCATTTTTGC, the switch fluorescence ratio is 1 ± 0.022. For CCCAAACCTG the value was 1.13 ± 0.068; for CCCAGGAGTT, 1.94 ± 0.16.

CCCAGTAGCG: the switch fluorescence ratio was 1.03 ± 0.017. With CCCAGTTTTT, the switch fluorescence ratio is 1.006 ± 0.0054. CCCATCCCCG: the switch fluorescence ratio came to 1.2 ± 0.084.

As for CCCATGATGG, the switch fluorescence ratio was determined as 1.01 ± 0.046. CCCATGTTAA: the switch fluorescence ratio amounted to 0.993 ± 0.018. Take CCCATTTGCT: the switch fluorescence ratio stood at 1.02 ± 0.03.

On to CCCCAGTCAA, for which the switch fluorescence ratio was found to be 3.3 ± 0.43. For the sequence CCCCCACTGG, the switch fluorescence ratio was found to be 1.1 ± 0.15.

Turning to CCCCGGGGTT, the switch fluorescence ratio came to 1.88 ± 1.2. Take CCCCGGGTAA: the switch fluorescence ratio amounted to 1.33 ± 0.012. As for CCCCTTTATT, the switch fluorescence ratio is 1.01 ± 0.057. In the case of CCCGAATATT, the switch fluorescence ratio worked out at 1.06 ± 0.029.

Regarding CCCGGAGTGT, the switch fluorescence ratio was found to be 1.732 ± 0.0079.

As to CCCGGCCCAG, the switch fluorescence ratio was 1.05 ± 0.064. With CCCGGGAGTG, the switch fluorescence ratio amounted to 1.02 ± 0.028. As to CCCGGGGGCA, the switch fluorescence ratio was 1.21 ± 0.25.

Consider CCCGGGTAAG, for which the switch fluorescence ratio was determined as 1.03 ± 0.024. For the sequence CCCGGGTAGT, the switch fluorescence ratio came out at 1.12 ± 0.12. On to CCCGGGTCTG, for which the switch fluorescence ratio amounted to 1.04 ± 0.035. Take CCCGGGTTAT: the switch fluorescence ratio came out at 0.9942 ± 0.0075.

For CCCGGTATTG, the switch fluorescence ratio is 1.017 ± 0.007. CCCGGTCGGC: the switch fluorescence ratio was found to be 0.983 ± 0.0038. Turning to CCCTAGGCTT, the switch fluorescence ratio worked out at 1.13 ± 0.018. The result for CCCTCGCGGT reads 1.78 ± 0.027.
